Assay results reported in the supplement of paper PMC10567573.

B1: ALDH8A1 (parent)
chain: WSSRSPQERSRVLNQVADLLEQSL
B2: FAM164A (parent)
chain: YDPDYIQCPYCQRRFNENAADRHI

Variants of: B1
Test: protein stability index of a GFP-peptide fusion (GPS, HEK-293T) (PSI 1-6); higher = more stable
Conditions: c terminus: a fixed tail appended
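Note: lentivirally expressed fusions sorted by FACS into six bins by GFP to DsRed ratio, PSI derived from sequencing read proportions per bin multiplied by bin number.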

Protein stability index: each site, then its substitutions
L24: I 1.76 | A 2.88 | W 2.19 | N 2.96 | F 2.03 | H 3.96 | V 2.29 | P 4.16 | G 3.16 | K 3.94 | D 4.17 | E 3.59 | R 3.49 | M 2.86 | C 2.9 | Y 1.86 | Q 3.4 | S 3.61 | T 3.34
S23: F 2.24 | G 2.54 | D 4.17 | R 3.64 | T 1.94 | V 2.09 | C 1.96 | H 2.77 | E 3.39 | L 2.11 | K 3.53 | N 3.45 | W 1.94 | M 2.3 | A 2.31 | Y 1.72 | P 3.15 | Q 3.39 | I 2.51
Q22: V 1.91 | W 1.95 | S 3.1 | Y 2.33 | T 2.53

Variants of: B2
Test: as above
Conditions: c terminus: a fixed tail appended

Protein stability index: each site, then its substitutions
I6: P 3.37 | R 3.63 | D 3.6 | Y 3.23 | M 3.42 | Q 4.03 | T 3.56 | H 3.71 | L 3.27 | F 3.29 | A 3.58 | S 3.44 | E 3.5 | N 3.55 | W 2.8 | G 3.29 | V 4.14 | C 3.7 | K 3.71
Y1: R 3.98 | N 4.45 | I 4.72 | F 3.42 | L 4.6 | C 3.69 | T 4.79 | Q 4.55 | H 4.29 | E 5.12 | S 4.54 | M 4.24 | W 4.69 | G 4.17 | D 4.86 | K 4.41 | A 4.73 | P 4.54 | V 4.4
Q12: P 2.64 | N 4.05 | Y 4.3 | V 2.48 | L 4.9 | C 3.84 | G 4.74 | W 3.61 | F 4.24 | M 3.85 | R 4.27 | T 2.4 | E 4.04 | I 2.52 | H 4.93 | S 3.52 | D 3.26 | K 5.16 | A 4.08
P9: L 2.09 | H 2.83 | Q 3.14 | A 2.38 | W 2.52 | Y 2.07 | F 2.18 | C 2.59 | R 2.58 | T 2.55 | M 2.39 | N 2.75 | E 3.11 | S 2.95 | G 2.54 | D 3.09 | K 2.58 | I 2.29 | V 2.44
P3: C 3.49 | K 4.63 | N 4.46 | D 4.01 | I 3.99 | E 4.63 | T 4.65 | H 3.81 | G 4.67 | R 4.49 | F 4.02 | L 3.55 | W 3.5 | M 4.4 | A 4.57 | S 4.39 | Y 4.24 | V 4.25 | Q 3.86
R14: K 4.01 | A 4.16 | C 4.41 | H 4 | Y 4.52 | S 4.11 | P 3.9 | W 5.12 | N 2.68 | V 4.67 | E 3.88 | T 4.45 | G 2.81 | M 3.77 | Q 4.24 | I 4.64 | L 4.28 | F 5.24 | D 3.08
C8: K 3.54 | W 2.96 | A 3.88 | R 3.12 | P 3.72 | S 3.68 | Q 3.7 | T 4.23 | F 3.17 | E 4.37 | V 3.81 | L 3.56 | Y 3.43 | N 3.65 | I 3.13 | G 3.81 | D 4.24 | M 3.63 | H 3.46
Y10: L 3.02 | V 3.49 | S 3.9 | G 3.32 | Q 3.45 | F 4.28 | E 3.26 | P 3.72 | I 3.15 | R 2.99 | H 3.6 | D 3.36 | M 3.53 | A 4.5 | T 3.56 | C 3.23 | W 3.89 | N 3.91 | K 3.66
C11: K 3.57 | E 4.23 | F 3.45 | G 3.75 | A 3.48 | Q 3.47 | S 4.03 | Y 3.45 | V 3.57 | T 3.72 | R 3.06 | I 3.22 | M 3.65 | N 4.36 | W 3.42 | L 3.13 | D 3.81 | P 3.65 | H 3.69
D2: E 4.93 | C 2.33 | Y 3.71 | G 3.96 | F 3.52 | N 4.26 | M 3.49 | K 4.37 | L 2.69 | W 3.42 | I 2.38 | A 2.46 | Q 3.55 | R 4.07 | V 2.37 | P 3.64 | S 2.59 | T 2.33 | H 2.78
Q7: S 3.27 | I 4.76 | H 2.76 | E 3.87 | M 3.33 | R 3.79 | P 2.88 | W 2.83 | F 3.15 | Y 3.77 | A 3.27 | G 2.54 | L 3.48 | D 2.64 | K 3.94 | N 2.89 | C 3.57 | V 4.7 | T 4.57
Y5: H 3.69 | S 4.37 | E 4.57 | R 3.52 | P 3.84 | F 4.07 | W 4.68 | G 4.14 | Q 4.12 | I 4.41 | M 4.9 | L 4.25 | D 4.24 | A 4.05 | K 3.21 | C 4.01 | V 4.41 | N 4.11 | T 4.14
D4: Q 4.42 | C 3.48 | A 4.26 | L 3.59 | K 4.11 | F 3.72 | M 3.8 | N 4.22 | G 4.28 | S 4.49 | E 4.21 | P 4.08 | R 3.53 | H 4.5 | W 3.5 | T 4.08 | V 3.84 | I 4.5 | Y 3.59
R13: L 2.64 | A 3.76 | W 2.13 | P 2.24 | V 2.23 | F 3.18 | Y 2.7 | Q 3.75 | G 4.23 | M 4.03 | S 3.62 | H 3.51 | C 3.17 | K 4.32 | D 3.16 | E 3.07 | I 2.92 | N 3.68 | T 2.41
F15: K 3.54 | V 3.06 | E 3.59 | D 3.17 | C 3.34 | M 3.66 | I 4.21 | N 3.18 | Q 3.4 | W 4 | H 3.14 | P 2.8 | G 2.83 | T 2.48 | R 3.59 | L 3.77 | Y 3.47 | A 3.08 | S 2.93
N16: A 4.63 | G 3.71 | D 3.79 | E 3.97 | F 4.49 | C 4.37
